Experimental data published in US20190194304A1 (STICHTING SANQUIN BLOEDVOORZIENING, published 2019).
One block for each binder: values may come before it.

B1: human factor H (other, UniProt P08603 19-1231, looked up)
chain: EDCNELPPRRNTEILTGSWSDQTYPEGTQAIYKCRPGYRSLGNVIMVCRKGEWVALNPLRKCQKRPCGHPGDTPFGTFTLTGGNVFEYGVKAVYTCNEGYQLLGEINYRECDTDGWTNDIPICEVVKCLPVTAPENGKIVSSAMEPDREYHFGQAVRFVCNSGYKIEGDEEMHCSDDGFWSKEKPKCVEISCKSPDVINGSPISQKIIYKENERFQYKCNMGYEYSERGDAVCTESGWRPLPSCEEKSCDNPYIPNGDYSPLRIKHRTGDEITYQCRNGFYPATRGNTAKCTSTGWIPAPRCTLKPCDYPDIKHGGLYHENMRRPYFPVAVGKYYSYYCDEHFETPSGSYWDHIHCTQDGWSPAVPCLRKCYFPYLENGYNQNYGRKFVQGKSIDVACHPGYALPKAQTTVTCMENGWSPTPRCIRVKTCSKSSIDIENGFISESQYTYALKEKAKYQCKLGYVTADGETSGSITCGKDGWSAQPTCIKSCDIPVFMNARTKNDFTWFKLNDTLDYECHDGYESNTGSTTGSIVCGYNGWSDLPICYERECELPKIDVHLVPDRKKDQYKVGEVLKFSCKPGFTIVGPNSVQCYHFGLSPDLPICKEQVQSCGPPPELLNGNVKEKTKEEYGHSEVVEYYCNPRFLMKGPNKIQCVDGEWTTLPVCIVEESTCGDIPELEHGWAQLSSPPYYYGDSVEFNCSESFTMIGHRSITCIHGVWTQLPQCVAIDKLKKCKSSNLIILEEHLKNKKEFDHNSNIRYRCRGKEGWIHTVCINGRWDPEVNCSMAQIQLCPPPPQIPNSHNMTTTLNYRDGEKVSVLCQENYLIQEGEEITCKDGRWQSIPLCVEKIPCSQPPQIEHGTINSSRSSQESYAHGTKLSYTCEGGFRISEENETTCYMGKWSSPPQCEGLPCKSPPEISHGVVAHMSDSYQYGEEVTYKCFEGFGIDGPAIAKCLGEKWSHPPSCIKTDCLSLPSFENAIPMGEKKDVYKAGEQVTYTCATYYKMDGASNVTCINSRWTGRPTCRDTSCVNPPTVQNAYIVSRQMSKYPSGERVRYQCRSPYEMFGDEEVMCLNGNWTEPPQCKDSTGKCGPPPPIDNGDITSFPLSVYAPASSVEYQCQNLYQLEGNKRITCRNGQWSEPPKCLHPCVISREIMENYNIALRWTAKQKLYSRTGESVEFVCKRGYRLSSRSHTLRTTCWDGKLEYPTCAKR
notes: mature; Purified plasma FH (CompTech) in SPR, bridging ELISA and hybridoma screening (biotinylated); FH of healthy donor or aHUS patient serum in the C3b ELISA and the functional assays. aHUS sera carry a heterozygous mutation in CCP 20 that is not specified; also called FH; human purified factor H

Columns and labels:
C3b [1] = target: T1, C3b (UniProt P01024 23-667; P01024 749-1663, limits assumed); assay: SPR, 0.5 µM FH with anti-FH.07 Fab′ (2 to 1 molar ratio) over immobilised C3b
T1 construct: domain: C3b; C3b has two disulfide-linked chains (beta and alpha′); also called purified C3b
T1 sequence (P01024 23-667 limits assumed, chain 1 of 2): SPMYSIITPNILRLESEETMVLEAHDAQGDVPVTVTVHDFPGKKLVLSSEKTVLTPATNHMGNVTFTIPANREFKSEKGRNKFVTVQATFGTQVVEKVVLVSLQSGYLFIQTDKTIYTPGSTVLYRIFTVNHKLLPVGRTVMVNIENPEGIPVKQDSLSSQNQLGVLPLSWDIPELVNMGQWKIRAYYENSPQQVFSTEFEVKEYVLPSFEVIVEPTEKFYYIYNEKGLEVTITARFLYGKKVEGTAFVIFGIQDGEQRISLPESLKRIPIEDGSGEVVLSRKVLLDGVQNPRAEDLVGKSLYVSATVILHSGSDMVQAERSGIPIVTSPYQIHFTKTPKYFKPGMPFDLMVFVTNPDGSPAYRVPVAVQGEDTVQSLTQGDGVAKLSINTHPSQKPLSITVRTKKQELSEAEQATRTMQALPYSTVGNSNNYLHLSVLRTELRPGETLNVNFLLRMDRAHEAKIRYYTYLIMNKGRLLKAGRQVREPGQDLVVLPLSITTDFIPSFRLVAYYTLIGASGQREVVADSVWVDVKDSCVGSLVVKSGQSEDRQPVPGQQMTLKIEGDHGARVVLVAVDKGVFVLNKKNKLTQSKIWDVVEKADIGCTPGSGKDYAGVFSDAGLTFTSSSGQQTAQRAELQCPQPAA
T1 sequence (P01024 749-1663 limits assumed, chain 2 of 2): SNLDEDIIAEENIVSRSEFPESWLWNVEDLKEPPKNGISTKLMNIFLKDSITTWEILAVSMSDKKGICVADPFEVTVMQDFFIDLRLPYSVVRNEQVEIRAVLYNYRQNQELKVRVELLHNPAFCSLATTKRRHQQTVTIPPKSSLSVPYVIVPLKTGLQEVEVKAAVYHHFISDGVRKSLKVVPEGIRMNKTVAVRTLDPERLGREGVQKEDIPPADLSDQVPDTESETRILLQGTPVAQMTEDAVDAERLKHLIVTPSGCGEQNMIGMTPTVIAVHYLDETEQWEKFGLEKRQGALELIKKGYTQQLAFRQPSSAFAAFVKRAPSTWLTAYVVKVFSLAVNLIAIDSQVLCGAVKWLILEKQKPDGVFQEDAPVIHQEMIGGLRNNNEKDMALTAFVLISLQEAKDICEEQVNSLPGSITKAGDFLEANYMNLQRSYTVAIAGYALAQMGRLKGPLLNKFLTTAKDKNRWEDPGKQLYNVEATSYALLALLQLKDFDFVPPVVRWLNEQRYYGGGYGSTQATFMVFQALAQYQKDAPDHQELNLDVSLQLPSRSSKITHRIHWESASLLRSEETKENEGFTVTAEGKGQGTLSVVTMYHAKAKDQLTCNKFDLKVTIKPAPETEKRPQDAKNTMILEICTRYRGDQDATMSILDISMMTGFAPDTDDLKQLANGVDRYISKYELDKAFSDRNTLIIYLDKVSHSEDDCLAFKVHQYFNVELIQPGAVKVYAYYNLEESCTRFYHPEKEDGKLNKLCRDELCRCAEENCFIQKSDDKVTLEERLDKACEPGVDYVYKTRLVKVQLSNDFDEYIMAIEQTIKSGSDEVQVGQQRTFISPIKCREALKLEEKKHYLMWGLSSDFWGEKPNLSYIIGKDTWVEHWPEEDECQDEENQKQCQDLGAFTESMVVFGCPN
Procedure: (§1) Binding of FH to C3b, iC3b or C3d in the presence of the anti-FH moAbs was determined by surface plasmon resonance using a Biacore T3000 instrument (GE Healthcare, Little Chalfont, UK). Purified C3b, iC3b or C3d (Complement Technologies) was immobilized onto one of three flow cells of a CM5 Biacore Sensor Chip (GE Healthcare) using standard […] coupling. The remaining flow cell was used as reference surface and prepared by performing a coupling reaction without the addition of any protein. A response of 4400 response units (RUs), 4180 RUs and 1470 RUs was obtained after coupling with C3b, iC3b and C3d, respectively. SPR experiments were performed at 25° C. using a flow rate of 10 μl/min and in 10 mM HEPES-buffered 150 mM saline, pH 7.4, with 0.05% (w/v) Tween-20 (HBS-P). Duplicate injections of 0.5 μM FH with a contact time of 210 seconds were performed to obtain a reference binding signal for FH on each surface. […]
(§2) In addition, SPR experiments were conducted to study the interaction of FH with C3b, iC3b and C3d in the absence and presence of […] Fab′ fragments. Briefly, three flow cells of a CM5 Biacore Sensor chip were coated with either C3b, iC3b or C3d and interactions of FH with these surfaces in the absence or presence of anti-FH moAb was determined on a Biacore T3000 system.

iC3b = target: T2, iC3b (UniProt P01024 23-667; P01024 749-1303; P01024 1321-1663, limits assumed); assay: SPR, 0.5 µM FH with anti-FH.07 Fab′ (2 to 1 molar ratio) over immobilised iC3b
T2 construct: domain: iC3b; also called purified iC3b
T2 sequence (P01024 23-667 limits assumed, chain 1 of 3): as the sequence (P01024 23-667 limits assumed, chain 1 of 2) above
T2 sequence (P01024 749-1303 limits assumed, chain 2 of 3): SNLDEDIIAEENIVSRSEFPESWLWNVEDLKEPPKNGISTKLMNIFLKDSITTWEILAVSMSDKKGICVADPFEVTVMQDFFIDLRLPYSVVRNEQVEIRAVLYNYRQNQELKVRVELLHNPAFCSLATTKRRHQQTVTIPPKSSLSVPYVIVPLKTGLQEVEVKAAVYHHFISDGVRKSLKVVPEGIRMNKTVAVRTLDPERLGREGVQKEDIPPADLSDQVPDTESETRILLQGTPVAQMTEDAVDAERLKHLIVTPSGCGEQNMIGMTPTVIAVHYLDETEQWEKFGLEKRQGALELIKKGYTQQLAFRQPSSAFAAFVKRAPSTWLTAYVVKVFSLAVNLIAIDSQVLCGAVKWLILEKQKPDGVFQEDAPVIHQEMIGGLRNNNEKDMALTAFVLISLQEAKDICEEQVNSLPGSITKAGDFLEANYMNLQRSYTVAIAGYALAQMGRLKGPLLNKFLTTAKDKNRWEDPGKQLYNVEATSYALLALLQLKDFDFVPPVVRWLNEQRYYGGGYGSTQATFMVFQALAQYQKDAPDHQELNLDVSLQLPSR
T2 sequence (P01024 1321-1663 limits assumed, chain 3 of 3): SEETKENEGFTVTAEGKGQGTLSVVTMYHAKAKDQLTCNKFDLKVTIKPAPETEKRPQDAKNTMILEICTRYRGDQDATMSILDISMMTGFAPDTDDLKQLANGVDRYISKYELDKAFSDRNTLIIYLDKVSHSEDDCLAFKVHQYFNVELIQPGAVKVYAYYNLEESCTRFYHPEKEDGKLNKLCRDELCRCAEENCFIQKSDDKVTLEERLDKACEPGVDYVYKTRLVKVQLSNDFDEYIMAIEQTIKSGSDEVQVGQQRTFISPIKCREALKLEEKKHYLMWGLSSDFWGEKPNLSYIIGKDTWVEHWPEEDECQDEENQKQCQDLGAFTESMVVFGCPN
Procedure: as §1, §2

human factor H = target: B1; assay: bridging ELISA: FH coat, biotinylated FH for detection
Procedure: One possible mechanism for the observed increased FH inhibitory function upon incubation with anti-FH.07 is multimerization of FH by crosslinking via the antibody, thereby increasing the avidity of FH for the surface. To test this possibility, we generated monovalent Fab′ fragments of anti-FH.07. If crosslinking of FH is the cause of the observed increased FH function, monovalent Fab′ fragments are expected to show no potentiating effect. With a bridging ELISA we first checked whether the generated Fab′ fragments were indeed completely monovalent and not capable to crosslink FH molecules. To this end an ELISA plate was coated with FH and biotinylated FH was used for detection. […] The anti-FH.07 F(ab′)₂ and Fab′ fragments were then tested in the C3 deposition assays on zymosan and LPS coated plates. To our surprise we observed the same potentiating effect of the Fab′ fragments on FH function. […] Therefore we concluded that the effect of anti-FH.07 was not due to crosslinking of FH molecules by the monoclonal antibody.

recombinant FH CCP 15-18 = target: T3, recombinant FH CCP 15-18 (human, UniProt P08603 868-1104, 125I label); assay: radioimmunoassay, moAb on RM-19 sepharose, 125I-labelled fragment
T3 construct: domain: CCP 15-18; also called recombinant FH CCP domains 15-18
T3 sequence (looked up): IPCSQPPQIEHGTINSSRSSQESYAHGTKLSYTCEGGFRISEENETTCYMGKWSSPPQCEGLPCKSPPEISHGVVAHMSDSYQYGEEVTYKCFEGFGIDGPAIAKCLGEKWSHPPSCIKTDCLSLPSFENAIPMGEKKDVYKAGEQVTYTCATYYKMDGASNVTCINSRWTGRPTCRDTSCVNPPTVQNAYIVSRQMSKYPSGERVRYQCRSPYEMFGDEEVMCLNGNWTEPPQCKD
Procedure: (§3) Reactivity of FH specific moAbs was tested with recombinant human FH fragments composed of multiple CCPs. To this end, fifty microliter of 100 μg/ml anti-FH moAbs was mixed with 0.5 ml of 2 mg/ml RM-19 coupled-sepharose (25 μg moAb per 1 mg CnBr-Sepharose). The FH fragments were labelled with ¹²⁵I and 100 μl (20000 c/30 sec) was added to each sample followed by incubation O/N. The assay was performed in PBS with 0.1% (w/v) Tween-20 and 0.1% (w/v) BSA (PTB). Samples were washed 5 times with PBS with 0.1% (w/v) Tween-20 and counted for 30 seconds. Sepharose bound radioactivity was measured and compared to total input (set to 100%).
(§4) In order to map the binding site of anti-FH.07, we tested the reactivity of this moAb towards a panel of radiolabeled recombinant CCP domains or purified human FH. Binding of the moAbs was tested in a radioimmunoassay and was related to the input (100%).

recombinant FH CCP 15-19 = target: T4, recombinant FH CCP 15-19 (human, UniProt P08603 868-1165, 125I label); assay: as above
T4 construct: domain: CCP 15-19; also called recombinant FH CCP domains 15-19
T4 sequence (looked up): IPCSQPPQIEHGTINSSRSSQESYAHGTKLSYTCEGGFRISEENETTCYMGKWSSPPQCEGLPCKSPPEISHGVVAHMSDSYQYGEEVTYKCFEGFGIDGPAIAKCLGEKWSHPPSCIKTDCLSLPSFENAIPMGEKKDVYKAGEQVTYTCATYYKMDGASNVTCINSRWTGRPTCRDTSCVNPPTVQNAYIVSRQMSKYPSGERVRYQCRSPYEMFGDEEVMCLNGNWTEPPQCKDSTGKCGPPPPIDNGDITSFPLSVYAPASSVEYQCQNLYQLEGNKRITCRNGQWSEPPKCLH
Procedure: as §3, §4

recombinant FH CCP 18-20 = target: T5, recombinant FH CCP 18-20 (human, UniProt P08603 1046-1231, 125I label); assay: as above
T5 construct: domain: CCP 18-20; also called recombinant FH CCP domains 18-20
T5 sequence (looked up): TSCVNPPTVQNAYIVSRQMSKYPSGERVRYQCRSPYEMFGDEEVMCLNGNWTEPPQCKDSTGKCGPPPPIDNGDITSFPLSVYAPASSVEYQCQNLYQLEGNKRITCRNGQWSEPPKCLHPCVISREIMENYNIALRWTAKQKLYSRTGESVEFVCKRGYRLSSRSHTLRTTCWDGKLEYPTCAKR
Procedure: as §3, §4

C3b [2] = target: T1, C3b; assay: SPR, Fab′ injected without FH over immobilised C3b
Procedure: Binding of FH to C3b, iC3b or C3d in the presence of the anti-FH moAbs was determined by surface plasmon resonance using a Biacore T3000 instrument (GE Healthcare, Little Chalfont, UK). Purified C3b, iC3b or C3d (Complement Technologies) was immobilized onto one of three flow cells of a CM5 Biacore Sensor Chip (GE Healthcare) using standard […] coupling. The remaining flow cell was used as reference surface and prepared by performing a coupling reaction without the addition of any protein. A response of 4400 response units (RUs), 4180 RUs and 1470 RUs was obtained after coupling with C3b, iC3b and C3d, respectively. SPR experiments were performed at 25° C. using a flow rate of 10 μl/min and in 10 mM HEPES-buffered 150 mM saline, pH 7.4, with 0.05% (w/v) Tween-20 (HBS-P). Duplicate injections of 0.5 μM FH with a contact time of 210 seconds were performed to obtain a reference binding signal for FH on each surface. After each sample injection a dissociation time of 240 seconds was allowed, using HBS-P as running buffer, followed by a single 30 seconds injection of 1 M NaCl to regenerate the surface.
To determine the effect of anti-FH.07 without interference of possible cross-linking via the moAb, Fab′ fragments, generated as described above, were used. […]

Binder: B1
- fold increase of the measured interactions (RU) with anti-FH.07 Fab′ against FH alone (C3b [1]): ≥ 2 fold
- fold increase of the measured interactions (RU) with anti-FH.07 Fab′ against FH alone (iC3b): ≥ 2 fold

B2: monoclonal antibody anti-FH.07 (murine IgG1) (antibody, V domains shown)
VH: QVQLQQSGPGLVQPSQSLSITCTVSDFSLARYGVHWIRQSPGKGLEWLGVIWSGGTADYNAAFISRLNINKDNSKSQVFFKMNSLQANDTAIYYCARNFGNYAVDYWGQGTS
VL: QIVLSQSPTFLSASPGEKVTVTCRASSSVKYMHWYQQKPGASPKPWIFATSNLASGVPARFSGSGSGTSYSLTISRVEAEDAATYYCQQWSIIPPTFGNGTKLELK
notes: Captured with rat anti-mouse kappa RM19; also called intact IgG; intact antibody
- binding result (human factor H): binds
- binding result (recombinant FH CCP 15-18): binds
- binding result (recombinant FH CCP 15-19): binds
- binding result (recombinant FH CCP 18-20): binds

Results, then the binder that gave them:

- binding result (human factor H): binds
B3: F(ab′)2 fragments of anti-FH.07 (other)
VH: QVQLQQSGPGLVQPSQSLSITCTVSDFSLARYGVHWIRQSPGKGLEWLGVIWSGGTADYNAAFISRLNINKDNSKSQVFFKMNSLQANDTAIYYCARNFGNYAVDYWGQGTS
VL: QIVLSQSPTFLSASPGEKVTVTCRASSSVKYMHWYQQKPGASPKPWIFATSNLASGVPARFSGSGSGTSYSLTISRVEAEDAATYYCQQWSIIPPTFGNGTKLELK
notes: also called anti-FH.07 F(ab′)2

- binding result (C3b [2]): no binding
B4: Fab′ fragments of anti-FH.07 (Fab, V domains shown)
VH: QVQLQQSGPGLVQPSQSLSITCTVSDFSLARYGVHWIRQSPGKGLEWLGVIWSGGTADYNAAFISRLNINKDNSKSQVFFKMNSLQANDTAIYYCARNFGNYAVDYWGQGTS
VL: QIVLSQSPTFLSASPGEKVTVTCRASSSVKYMHWYQQKPGASPKPWIFATSNLASGVPARFSGSGSGTSYSLTISRVEAEDAATYYCQQWSIIPPTFGNGTKLELK
modifications: free thiol groups blocked with iodoacetamide after reduction with dithioerythritol
notes: also called anti-FH.07 Fab′
